B1: VPS39 (parent)
chain: TTLLKCYLHTNVALVAPLLRLENN
B2: CHCHD3 (parent)
chain: YSGAYGASVSDEELKRRVAEELAL

Variants of: B1
Experiment: protein stability index of a GFP-peptide fusion (GPS, HEK-293T) (PSI 1-6); higher = more stable
Conditions: c terminus: a fixed tail appended
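Note: lentivirally expressed fusions sorted by FACS into six bins by GFP to DsRed ratio, PSI derived from sequencing read proportions per bin multiplied by bin number.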

Protein stability index of substitutions, site by site:
L18: T 2.51
V12: K 1.45 | F 2.91 | Q 1.95 | S 3.9 | N 2.06 | D 1.97 | T 3.04
V15: P 3.16 | E 1.35 | W 2.17 | N 2.07 | R 1.85 | H 2.17 | D 1.31 | C 1.65 | I 2.17 | T 2.11 | F 2.62
L19: H 1.7 | W 2.61 | P 1.52 | T 2.11 | D 2.11 | E 2.02 | C 1.35 | V 2.79 | Q 1.46 | G 1.97
Y7: N 2.9 | E 1.73 | D 2.27 | P 1.7 | R 1.76 | H 3.18 | S 3.15 | V 2.59 | F 2.26

Variants of: B2
Experiment: as above
Conditions: c terminus: a fixed tail appended

Protein stability index, by site and new letter:
A23: K 2.71 | G 3.02 | S 2.19 | V 2.55 | F 2.97 | L 2.72 | P 3.31 | D 2.76 | R 2.26 | T 3.13 | H 2.71 | I 2.52 | C 3.08 | Q 2.58 | E 2.86 | N 2.97 | M 2.65 | Y 2.7 | W 2.87
L22: T 3.26 | I 2.7 | D 2.75 | P 2.47 | S 2.4 | K 2.19 | W 1.89 | H 2.05 | F 1.59 | G 2.33 | A 2.5 | R 3.32 | V 3.58 | C 2.57 | N 3.21 | E 2.7 | M 2.87 | Q 2.77 | Y 1.94
E21: D 2.45 | G 3.32 | S 3.57 | R 2.89 | V 2.19 | L 2.87 | A 2.94 | F 2.44 | W 2.62 | N 2.9 | T 2.33 | Q 3.05 | M 3.14 | H 2.44 | P 3.47 | Y 2.45 | I 2.12 | C 3.9 | K 2.88
A19: D 2.84 | K 2.47 | V 3.43 | I 2.49 | T 1.94 | S 2.05 | M 3.43 | Q 2.56 | H 3.24 | F 2.54 | Y 2.27 | G 3.1 | W 2.69 | R 2.95 | L 3.05 | N 3.53 | C 2.67 | P 3.04 | E 3.04
V18: L 2.93 | E 2.59 | K 2.38 | S 2.42 | R 2.44 | T 2.39 | P 2.58 | Q 1.72 | N 2.73 | H 2.75 | F 2.64 | W 2.35 | M 2.09 | Y 2.09 | I 2.86
L24: S 2.31 | E 2.92 | C 2.79 | D 2.52 | N 2.54 | T 2.48 | A 2.62 | Y 2.5 | F 1.77 | M 2.74 | K 2.87 | R 2.52 | H 2.31 | V 2.37 | Q 2.63 | P 2.27 | W 2.33 | G 2.96 | I 2.46
E20: A 2.19 | W 1.85 | I 2.4 | T 2.26 | Q 2.68 | K 2.9 | R 2.49 | D 3.01 | P 2.49 | V 1.57 | Y 2.27 | H 2.59 | N 2.15 | C 2.48 | S 3.03 | L 2.22 | G 1.58 | F 1.99 | M 2.16

— the supplement of paper PMC10567573
